The text below walks through data of US10925971B2, “Methods of treating PRLR positive breast cancer” (Regeneron Pharmaceuticals, Inc., priority 2016, dated 2021).

The target in test [1] is T1, native PRLR expressing T47D cells (Homo sapiens, UniProt P16471).
T1 construct: a native PRLR expressing cell line (T47D); endogenous in cells; host or cells: T47D
T1 sequence (P16471 25-622): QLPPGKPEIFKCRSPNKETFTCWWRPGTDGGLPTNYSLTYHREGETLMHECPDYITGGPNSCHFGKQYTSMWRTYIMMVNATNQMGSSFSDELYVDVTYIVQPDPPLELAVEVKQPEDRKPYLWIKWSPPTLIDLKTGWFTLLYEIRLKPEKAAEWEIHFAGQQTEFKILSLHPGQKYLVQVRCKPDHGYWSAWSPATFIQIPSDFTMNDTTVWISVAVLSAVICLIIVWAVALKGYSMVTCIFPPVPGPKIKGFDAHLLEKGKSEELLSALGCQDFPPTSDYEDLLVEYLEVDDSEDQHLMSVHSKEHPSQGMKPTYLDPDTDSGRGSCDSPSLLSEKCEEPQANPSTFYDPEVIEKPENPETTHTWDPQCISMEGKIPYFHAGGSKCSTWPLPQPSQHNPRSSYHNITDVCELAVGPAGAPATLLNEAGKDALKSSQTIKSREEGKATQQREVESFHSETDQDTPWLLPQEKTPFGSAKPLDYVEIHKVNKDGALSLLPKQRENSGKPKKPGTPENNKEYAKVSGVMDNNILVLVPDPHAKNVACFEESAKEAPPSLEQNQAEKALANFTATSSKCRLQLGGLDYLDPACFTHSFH
Put plainly: FACS cell surface binding. The gist of the method: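 Flow cytometry on native PRLR-expressing T47D cells, alongside PRLR-overexpressing and parental HEK293 lines. Cells (1×10^5) incubated with antibody at 10 μg/ml, 30 min on ice, then PE anti-human secondary; binding reported as MFI fold over isotype control.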

The test system of a further test is MCF7/PRLR tumors. Description: MCF7/PRLR breast cancer xenograft, tumor size and tumor growth inhibition. As to conditions: NCr Nude mice, multi-dose 15 mg/kg. It is filed as in vivo, NCr nude mice. The gist of the method:
(§1)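 MCF7/PRLR cells in mammary fat pad of female NCr nude mice, PC3/PRLR in flank of male SCID, T47D #11 in flank of female CB17 SCID, all with estrogen pellets.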

For test [2], the target named is T2, dimeric human PRLR (hPRLR.mFc; SEQ ID NO:402) (Homo sapiens, UniProt P16471).
T2 construct: dimeric (hPRLR.mFc)
Put plainly: Surface plasmon resonance (Biacore T200), antibody-capture format. It is filed as binding. To be noted: analyte hPRLR.mFc. An outline of the steps: (§2)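 Antibodies (human IgG1 Fc) captured on an anti-human Fc sensor surface; soluble monomeric (.mmh) or dimeric (.mFc) PRLR injected as analyte. ka and kd obtained by fitting to a 1:1 binding model.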
A general note: SPR reads the build-up and loss of mass on a sensor chip optically.

Test [3] concerns the target T3, monomeric human PRLR (hPRLR.mmh; SEQ ID NO:401) (Homo sapiens, UniProt P16471).
T3 construct: soluble monomeric (hPRLR.mmh); mmh (myc-myc-hexahistidine) (C)
The test is described as above. In kind it is binding. As to conditions: analyte hPRLR.mmh. The gist of the method:
as §2

For test [4], the system named is Macaca fascicularis PRLR (mfPRLR.mmh; SEQ ID NO:403). The test is described as above. It is filed as binding. As to conditions: analyte mfPRLR.mmh. The gist of the method: as §2
In the next test the test system is PC3/PRLR tumors. Put plainly: PC3/PRLR xenograft, tumor size and tumor growth inhibition. It is filed as in vivo, SCID mice. To be noted: SCID mice, multi-dose 15 mg/kg. The gist of the method: as §1
Setting [5] is: MCF7/PRLR tumors TRIAL #2, Day 63.
Setting [6] is: PC3/PRLR tumors TRIAL #2, Day 55.
[7] abbreviates: PC3/PRLR tumors TRIAL #1, Day 63.

T2 sequence (P16471 with tags, fused parts or gaps): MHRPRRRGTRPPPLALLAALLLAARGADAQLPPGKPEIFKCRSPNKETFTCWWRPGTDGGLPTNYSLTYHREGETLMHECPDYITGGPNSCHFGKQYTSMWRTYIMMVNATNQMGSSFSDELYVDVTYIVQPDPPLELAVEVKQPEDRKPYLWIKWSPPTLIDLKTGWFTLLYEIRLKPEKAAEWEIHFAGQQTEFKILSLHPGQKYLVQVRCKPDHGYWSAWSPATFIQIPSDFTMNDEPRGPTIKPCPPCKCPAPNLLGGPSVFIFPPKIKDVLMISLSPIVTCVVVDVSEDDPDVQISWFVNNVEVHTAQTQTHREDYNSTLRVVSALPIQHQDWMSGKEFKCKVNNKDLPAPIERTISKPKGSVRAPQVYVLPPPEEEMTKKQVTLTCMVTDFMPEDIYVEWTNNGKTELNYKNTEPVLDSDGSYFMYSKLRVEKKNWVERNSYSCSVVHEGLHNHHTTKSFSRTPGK
T3 sequence (P16471 with tags, fused parts or gaps): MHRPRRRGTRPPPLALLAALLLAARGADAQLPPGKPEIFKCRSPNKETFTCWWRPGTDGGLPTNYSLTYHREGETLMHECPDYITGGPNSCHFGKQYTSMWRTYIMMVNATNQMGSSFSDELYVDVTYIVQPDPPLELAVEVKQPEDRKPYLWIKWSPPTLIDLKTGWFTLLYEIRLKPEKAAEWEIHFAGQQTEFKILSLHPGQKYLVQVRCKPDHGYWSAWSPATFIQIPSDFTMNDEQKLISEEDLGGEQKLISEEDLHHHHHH
Chain of Macaca fascicularis PRLR (mfPRLR.mmh; SEQ ID NO:403) (as listed by the source): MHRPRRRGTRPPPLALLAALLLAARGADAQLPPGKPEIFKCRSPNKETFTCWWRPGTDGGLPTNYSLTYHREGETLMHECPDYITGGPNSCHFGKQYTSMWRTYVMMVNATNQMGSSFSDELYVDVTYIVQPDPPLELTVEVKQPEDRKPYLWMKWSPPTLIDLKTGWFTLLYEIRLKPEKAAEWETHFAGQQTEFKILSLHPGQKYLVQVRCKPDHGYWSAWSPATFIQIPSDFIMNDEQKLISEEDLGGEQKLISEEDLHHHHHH

B1: H1H6782P: fully human anti-PRLR antibody, non-blocking; HCVR/LCVR SEQ ID NOs 66/74 (antibody, V domains shown)
VH: EVQLVESGGGLVQPGRSLRLSCAASGFTFDDYAMHWVRQAPGKGLEWVSGIIWNSGHIGYGDSVKGRFTISRDNAKKSLYLQMNSLRAEDTALYYCARDSGRYQSYFDYWGQGTLVTVSS
VL: DIQMTQSPSTLSASVGDRVTITCRASHIISSWLAWYQQKPGKAPKVLIFKASSLESGVPSRFSGSGSGTEFTLTISSLQPDDFATYYCQQYNTYSRTFGQGTKVEIK
For B1, the “FACS Cell Binding” value in test [1] is given as 43 Fold Above Background. The figures for the “Average Tumor Growth Inhibition (%)” value with MCF7/PRLR tumors (setting [5]) and in the test on PC3/PRLR tumors (setting [6]) were 88% and 6%, respectively. The figures for the “Final Tumor size mm^3 (mean ± SEM)” value with MCF7/PRLR tumors (setting [5]) and in the test with PC3/PRLR tumors (setting [6]) were 300 ± 83 mm^3 and 1154 ± 212 mm^3, respectively. Moreover, the ka came to 317000 M/s in test [2] (25° C.); 598000 M/s in test [2] (37° C.); 360000 M/s in test [3] (25° C.); 557000 M/s in test [3] (37° C.); 266000 M/s in test [4] (25° C.); 385000 M/s in test [4] (37° C.). Besides, the kd in test [2] (25° C.) is 7.13e-05 s⁻¹; in test [2] (37° C.) it was 0.00013 s⁻¹; in test [3] (25° C.), 0.000247 s⁻¹; in test [3] (37° C.), 0.000716 s⁻¹; in test [4] (25° C.), 0.000279 s⁻¹; in test [4] (37° C.), 0.000767 s⁻¹.

B2: H1H6953N: anti-PRLR antibody, human IgG1 Fc form of H1M6953N of Table 1; HCVR/LCVR SEQ ID NOs 274/282 (antibody, V domains shown)
VH: EVQLLESGGGLVQPGGTLRLSCAASGFTFSAYAMSWVRQAPGKGLEWVSSINVRAGDTYYADSVKGRFTISRDNSKNTLFLLMNSLRAEDTAAYYCAKARYSSNWGFDFWGQGTLVTVSS
VL: DIVMTQSPDSLTVSLGARTTINCQSSQTILHSSNNHNYLAWYQQKPGLPPKLLIYWSSTRESGVPDRFSGSGSGTDFTLTISSLQAEDVAIYYCQQYSNTPYTFGQGTKLEIN
As to B2, in test [1], the “FACS Cell Binding” value is listed as 40 Fold Above Background. In addition, the “Final Tumor size mm^3 (mean ± SEM)” value is recorded as 421 ± 23 mm^3 with MCF7/PRLR tumors (MCF7/PRLR tumors TRIAL #1, Day 52) and 1306 ± 127 mm^3 in the test on PC3/PRLR tumors (setting [7]). The ka in test [2] (25° C.) was found to be 711000 M/s; in test [2] (37° C.), 1.47e+06 M/s; in test [3] (25° C.), 792000 M/s; in test [3] (37° C.), 1.1e+06 M/s; in test [4] (25° C.), 727000 M/s; in test [4] (37° C.) it was 947000 M/s. Also, the kd in test [2] (25° C.) came to 4.77e-05 s⁻¹; in test [2] (37° C.) it was 0.00017 s⁻¹; in test [3] (25° C.), 0.000212 s⁻¹; in test [3] (37° C.), 0.00122 s⁻¹; in test [4] (25° C.), 0.000319 s⁻¹; in test [4] (37° C.), 0.00256 s⁻¹. For the same molecule, in the test on PC3/PRLR tumors (setting [7]), the “Average Tumor Growth Inhibition (%)” value was 0%.

B3: H1H6765P: fully human anti-PRLR antibody, human IgG1 Fc; HCVR/LCVR SEQ ID NOs 18/26 (antibody, V domains shown)
VH: EVQLVESGGGVVRPGGSLRLSCVGSGFSFDDHGMNWVRQGPGKGLEWVSGFNWNGGSTNYAESVKGRFTISRDNARNSLFLQMNSLRAEDTALYYCVRGRSGWFNDAFDVWGPGTMVTVSS
VL: EIVLTQSPGTLSLSPGERATLSCRASQTINSNYLAWYRQKPGQTPRLLIYGTSSRATGIPDRFSGSGSGTDFSLTISRLEPEDFAVFYCQQYAGLPTFGPGTKVDIK
Regarding B3, the “FACS Cell Binding” value in test [1] is on record as 40 Fold Above Background. In addition, in the test with MCF7/PRLR tumors (setting [5]), the “Average Tumor Growth Inhibition (%)” value worked out at 19%. For the same molecule, the “Final Tumor size mm^3 (mean ± SEM)” value in the test with MCF7/PRLR tumors (setting [5]) worked out at 737 ± 182 mm^3; in the test with PC3/PRLR tumors (setting [6]), 1208 ± 72 mm^3. Besides, the ka in test [2] (25° C.) worked out at 869000 M/s; in test [2] (37° C.), 801000 M/s; in test [3] (25° C.), 907000 M/s; in test [3] (37° C.), 1.25e+06 M/s; in test [4] (25° C.), 527000 M/s; in test [4] (37° C.), 1.06e+06 M/s. The kd in test [2] (25° C.) came to 3.41e-05 s⁻¹; in test [2] (37° C.), 0.000103 s⁻¹; in test [3] (25° C.), 0.000113 s⁻¹; in test [3] (37° C.), 0.000366 s⁻¹; in test [4] (25° C.) it was 0.000134 s⁻¹; in test [4] (37° C.), 5.37e-05 s⁻¹.
